In US20250289873A1 (published 2025):
Changes are numbered by the printed parent chain. Read-outs that look alike come from different tables or passages of the source. One block for each binder: values may come before it.

What was measured:
[1] = molecular target: hCFHR4; test: SPR kinetics
[2] = molecular target: T1, hCFHR4b; test: SPR kinetics
T1 chain: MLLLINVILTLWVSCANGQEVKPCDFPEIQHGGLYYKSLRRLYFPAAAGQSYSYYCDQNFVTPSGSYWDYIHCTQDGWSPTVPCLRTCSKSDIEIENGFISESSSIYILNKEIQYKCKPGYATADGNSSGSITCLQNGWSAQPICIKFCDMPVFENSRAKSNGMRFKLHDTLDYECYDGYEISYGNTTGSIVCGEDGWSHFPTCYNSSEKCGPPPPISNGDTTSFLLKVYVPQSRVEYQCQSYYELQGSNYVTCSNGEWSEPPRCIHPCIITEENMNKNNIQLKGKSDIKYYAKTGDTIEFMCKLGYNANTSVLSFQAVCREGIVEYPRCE

[3] = molecular target: T2, FHR-4 (coated on plate, C3 convertase assembly assay) (UniProt Q92496 20-331); test: C3 convertase assembly assay
T2 chain: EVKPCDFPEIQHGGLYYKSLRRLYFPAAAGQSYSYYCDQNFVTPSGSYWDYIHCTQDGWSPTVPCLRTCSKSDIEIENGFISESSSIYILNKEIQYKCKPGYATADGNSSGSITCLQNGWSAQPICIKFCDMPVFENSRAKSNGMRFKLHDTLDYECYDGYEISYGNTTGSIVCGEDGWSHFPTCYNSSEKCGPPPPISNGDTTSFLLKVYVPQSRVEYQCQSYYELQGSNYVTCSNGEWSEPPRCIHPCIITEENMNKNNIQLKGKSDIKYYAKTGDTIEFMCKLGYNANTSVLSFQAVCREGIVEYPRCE

[4] = molecular target: T2, FHR-4 (coated on plate, C3 convertase …); test: C3 convertase assembly assay

Kd [1]: 1.05 nM
B1: ATX-P-563 (antibody, V domains shown)
VH: QVQLQESGPGLMKPSETLSLTCTVSGGSISSHYWSWIRQPPGKGLEWIGYIFYSGNINYNPSLKSRVTISVDTSKNQFSLKLRSVTTADTAVYYCARDRGGSYSYHFDCWGQGTLVTVSS
VL: DIQMTQSPSSVSASVGDRVTITCRASQSFAGWLAWYQQKPGKAPKLLIYAASTLQSGVPSRFSGSGSGTDFTLTISSLQPEDFATYYCQQANSFPLTFGGGTKVEIKR

Kd [2]: 0.917 nM
Kd [1]: 0.917 nM
IC50 [3]: 7.6 nM
IC50 [4]: 7.6 nM
B2: ATX-P-603 (antibody, V domains shown)
VH: QVQLQESGPGLVKPSGTLSLTCAVSGGSISGSHWWSWFRQPPGKGLEWIGEIYHTGSTNKNPSLKSRVTISLDKSKNQFSLRLRSVTDADTAVYYCARDQYTGSPRDAFDIWGQGTMVTVSS
VL: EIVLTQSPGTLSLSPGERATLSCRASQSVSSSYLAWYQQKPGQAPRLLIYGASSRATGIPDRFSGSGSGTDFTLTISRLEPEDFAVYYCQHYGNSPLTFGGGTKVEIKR

Kd [1]: 117 nM
B3: ATX-P-591 (antibody, V domains shown)
VH: QVQLVQSGAEVKKPGASVKVSCKASGYTFTSYGISWVRQAPGQGLEWMGWISAYNGNTNYAQKLQGRVTMTTDTSTSTAYMELRSLRSDDTAIYYCTRDLRGTAFDYWGQGTPVTVSS
VL: DIQMTQSPSSLSASVGDRVTITCRASQSINTYLNWYQQKPGKAPKLLIYAASSLQSGVPSRFSGSGSGTDFTLTISSLQPEDFATYSCQHSFTTPFTFGPGTKLEIKR

Kd [1]: 3.48 nM
IC50 [4]: 3.27 nM
B4: ATX-P-566 (antibody, V domains shown)
VH: QVQLQQSGPGLVKPSQTLSLTCAISGDSVSSNSAAWNWIRQSPSRGLEWLGRTYYRSKWFNNYSVSVKSRIAINPDTSKNQFSLQLNSVTPEDTAVYYCARDLGELLDWYFDLWGRGTLVTVSA
VL: EIVLTQSPGTLSLSPGDRATLSCRASQSVRNSYVAWYQQKPGQAPRLLIYGASSRATGIPDRFSGSGSGTDFSLTIGRLEPEDFVVYYCQQYGNSPLTFGGGTKVEIKR

Kd [2]: 7.39 nM
Kd [1]: 7.39 nM
IC50 [3]: 8.4 nM
IC50 [4]: 8.44 nM
B5: ATX-P-600 (antibody, V domains shown)
VH: EVQLVESGGGLVQPGRSLRLSCAASGFTFDDYAMHWVRQVPGRGLEWVSGISWSGGSIGYADSVKGRFTISRDNSKNSLYLQMNSLRAEDTALYYCTKDREDGYNYGGVFDYWGQGTLVTVSS
VL: EIVLTQSPGTLSLSPGERATLSCRASQNVRGSYLAWYQQKPGQAPRLLIYGASNRATDIPDRFSGSGSGTDFTLTISGLEPEDFVVYYCQQYGSSYTFGQGTKVEIKR

Kd [1]: 3.56 nM
IC50 [4]: 3.94 nM
B6: ATX-P-564 (antibody, V domains shown)
VH: EVQLVESGGGLVKPGGSLRLSCAASGFTFSSYTMNWVRQAPGKGLEWVSSISSSSSYTYYADSVRGRFTISRDNAKNSLYLQMSSLRAEDTAVYYCARSASIAAGMDVWGKGTTVTVSS
VL: DIVMTQSPLSLPVTPGEPASISCRSSQSLLHSTGYNFLDWYLQKPGLSPQLLIYLASNRASGVPDRFSGSGSGTDFTLKISRVEAEDVGVYYCMQALQTPYTFGQGTKLEIKR

Kd [1]: 0.665 nM
B7: ATX-P-577 (antibody, V domains shown)
VH: QVQLQESGPGLVKPSGTLSLTCAVSGGSISSSNWWTWVRQPPGKGLEWIGETYHDGSTNYNPSLKSRVTISVDKSKNQFSLKLSSVTAADTAVYYCLEFYFDYWGQGTLVTVSS
VL: DIQMTQSPSSLSASVGDRVTITCRASQDIRNDLGWYQQKPGKVPKRLIYAASSLQSGVPSRFSGSGSGTEFTLTISSLQPEDFASYYCLQYNNYPFTLGPGTKVDIKR

Kd [1]: 4.26 nM
B8: ATX-P-587 (antibody, V domains shown)
VH: QVQLQQSGPGLVKPSQTLSLTCAISGDSVSSNSAAWNWIRQSPSRGLEWLGKTYYRSKWYNYYALSVKSRITINPDTSKNQFSLHLNSVTPEDTAVYYCARDGDYYLPSPFDLWGHGTMVTVSS
VL: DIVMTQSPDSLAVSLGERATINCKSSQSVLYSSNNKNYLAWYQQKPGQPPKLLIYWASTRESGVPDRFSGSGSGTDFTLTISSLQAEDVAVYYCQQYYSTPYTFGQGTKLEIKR

Kd [1]: 0.225 nM
B9: ATX-P-596 (antibody, V domains shown)
VH: EVQLVESGGGLVQPGRSLRLSCAASGFSFDDYAMHWVRQVPGKGLEWVSGISWTGGSVGYADPVKGRFTISRDNAKNSLYLQMNSLRPEDTALYYCAKDMGDGYSRNWPFDYWGQGTLVTVSS
VL: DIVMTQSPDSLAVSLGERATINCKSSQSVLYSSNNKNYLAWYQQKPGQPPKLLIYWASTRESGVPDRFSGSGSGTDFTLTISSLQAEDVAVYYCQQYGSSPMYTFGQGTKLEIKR

Kd [2]: 0.326 nM
Kd [1]: 0.326 nM
IC50 [3]: 4 nM
IC50 [4]: 4.09 nM
B10: ATX-P-594 (antibody, V domains shown)
VH: QVQLQQSGPGLVKPSQTLSLTCAISGDSVSSNSASWNWIRQSPSRGLEWLGTTYYRSKWFNVYAVSVKSRITINPDTSKNQFSLHLNSVTPEDTAIYFCTRDRGDLLHWYFDLWGRGTLVTVSS
VL: EIVLTQSPGTLSLSPGERATLSCRASQSVSSSYLAWYQQKPGQSPRLLIYGASSRATGIPDRFSGSGSGTDFTLTISRLEPEDFAVYYCQQYGRSVTFGGGTKLEIKR

Kd [2]: 1.44 nM
Kd [1]: 1.44 nM
IC50 [3]: 12 nM
IC50 [4]: 12.1 nM
B11: ATX-P-569 (antibody, V domains shown)
VH: EVQLVESGGGLAQFGRSLRLSCAASGFTFDDYAMHWLRQAPGMGLEWVSGISWNSGSIGYADSVKGRFTIARDNAKNSVHLQMNSLRAEDTALYYCAKDIGNGYTKGDVFDIWGQGTMVTVSS
VL: DIQMTQSPSTLSASVGDSVTITCRASQNIITWLAWYQQKPGKAPNLLIYKASSLESGVPSRFSGSGSGTEFTLTISSLQPDDFATYYCQQYSSYSYTFGQGTKLEIKR

Kd [1]: 10 nM
B12: ATX-P-582 (antibody, V domains shown)
VH: QVQLQESGPGLVKPSGTLSLTCAVSGGSISISKWWSWVRQPPGKGLEWIGEIYHTGSTNYHPSLKSRVTISVDKSKNQFYLKLNSVTAADTAVYYCARDELRLGELSPSLDIWGQGTMVTVSS
VL: DIQMTQSPSSLSASVGDRVTITCRASQNINNYLNWFRQKPGKAPKLLIFAASSLQSGVPSRFSGSESGTDFTLTISSLQPEDFATYYCQQSYSTPLTFGGGTKVEIKR

Kd [2]: 16.9 nM
Kd [1]: 16.9 nM
IC50 [3]: 5.9 nM
IC50 [4]: 5.94 nM
B13: ATX-P-595 (antibody, V domains shown)
VH: QVQLQQSGPGLVKPSQTLSLTCAISGDSVSSNSAAWNWIRQSPSRGLEWLGRTYYRSKWFNDYALSVKSRITINPDTSKNQFSLHLNSVTPEDTAVYYCAREPGIVAPGPFDYWGQGTLVTVSS
VL: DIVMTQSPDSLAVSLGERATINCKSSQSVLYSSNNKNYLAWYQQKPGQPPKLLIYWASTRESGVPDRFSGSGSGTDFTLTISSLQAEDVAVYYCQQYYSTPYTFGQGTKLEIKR

Kd [2]: 0.973 nM
Kd [1]: 0.973 nM
IC50 [3]: 4.2 nM
IC50 [4]: 4.28 nM
B14: ATX-P-592 (antibody, V domains shown)
VH: B13 VH with F60Y, N61S, A64P, H85Q, E102D, P103S, A107E, P108T, G109T
VL: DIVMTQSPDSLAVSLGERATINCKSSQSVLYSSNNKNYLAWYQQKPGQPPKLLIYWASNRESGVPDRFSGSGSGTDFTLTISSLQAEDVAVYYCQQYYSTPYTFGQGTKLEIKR
